{
  "source": "paper PMC6054930",
  "about": "(Frontiers in Immunology, 2018)",
  "biological_target": "T1, hPD-L1-Fc (human, UniProt Q9NZQ7 19-238)",
  "T1 construct": "human programmed death-ligand 1 (PD-L1, CD274, B7-H1); also called programmed death-ligand 1; CD274; source: bought: tebu-bio/BPS Bioscience, #71104",
  "T1 sequence (Q9NZQ7 19-238)": "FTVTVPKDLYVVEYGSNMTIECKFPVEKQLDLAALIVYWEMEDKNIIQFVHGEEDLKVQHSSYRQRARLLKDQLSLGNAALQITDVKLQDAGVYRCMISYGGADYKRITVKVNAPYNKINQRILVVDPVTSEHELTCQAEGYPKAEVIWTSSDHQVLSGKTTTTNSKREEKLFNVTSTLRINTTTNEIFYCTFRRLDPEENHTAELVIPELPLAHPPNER",
  "test": "ELISA; competitive: hPD-L1-Fc coated on the plate; test antibodies in presence of 1 µg/ml PD-1-Biotin or 0.5 µg/ml CD80-Biotin; detected with streptavidin-POD",
  "conditions": "both partners purified",
  "data": [
    {"binder": "CD80-Biotin (ligand, human, UniProt P33681 35-242, looked up, biotin, The vendor's product may carry an Fc part; also called B7-1; soluble CD80; source: bought: tebu-bio/BPS Bioscience, #71114) VIHVTKEVKEVATLSCGHNVSVEELAQTRIYWQKEKKMVLTMMSGDMNIWPEYKNRTIFDITNNLSIVILALRPSDEGTYECVVLKYEKDAFKREHLAEVTLSVKADFPTPSISDFEIPTSNIRRIICSTSGGFPEPHLSWLENGEELNAINTTVSQDPETELYAVSSKLDFNMTTNHSFMCLIKYGHLRVNQTFNWNTTKQEHFPDN", "values": [
      {"measurement": "binding result", "result": "binds"}
    ]}
  ]
}
